The data set concerns the molecule itself. Description: crystal structure.

The text below walks through data of paper doi:10.1101/2020.03.20.000893 (bioRxiv, 2020).

B1: K2P2.1_(cryst), engineered mouse K2P2.1 (TREK-1) (domain or fragment, UniProt P97438-2 21-322, looked up)
chain: SFSSKPTVLASRVESDSAINVMKWKTVSTIFLVVVLYLIIGATVFKALEQPQEISQRTTIVIQREKFLRAHPCVSDQELDELIQQIVAAINAGIIPLGASSNQVSHWDLGSSFFFAGTVITTIGFGNISPRTEGGKIFCIIYALLGIPLFGFLLAGVGDQLGTIFGKGIAKVEDTFIKWNVSQTKIRIISTIIFILFGCVLFVALPAVIFKHIEGWSALDAIYFVVITLTTIGFGDYVAGGSDIEYLDFYKPVVWFWILVGLAYFAAVLSMIGDWLRVIAKKTKEAVGEFRAHAAEWTANVT
Turning to B1, the binding result is given as “binds”.
